Results reported in the RNAGym collection of RNA variant scans (doi:10.7554/elife.80360).

B1: Hammerhead Ribozyme (parent)
chain: ACCGGAUGUGCUUUCCGGUCUGAUGAGUCCGUGAGGACGAAACAG

Variants of: B1
Assay: self-cleavage, relative activity (ratio to wild type); higher = more cleavage; co-transcriptional

For U7G C11U, which self-cleavage is on record?
The self-cleavage was 1.12.

Which self-cleavage does the source give for U24G A34U here?
The self-cleavage was 0.679.

With U21G C30G as the variant, how does the self-cleavage read?
Its self-cleavage is 0.373.

With G8A G31C as the variant, how does the self-cleavage read?
The self-cleavage was 0.889.

Which self-cleavage does the source give for C11A A37C here?
Its self-cleavage is 1.12.

Which self-cleavage does the source give for G22A G35A here?
The self-cleavage was 0.336.

For C2A A37U, which self-cleavage is on record?
The self-cleavage was 0.368.

With C30U A42U as the variant, how does the self-cleavage read?
Its self-cleavage is 0.328.

Which self-cleavage does the source give for U7C U28C here?
Its self-cleavage is 0.792.

For U9G C20G, which self-cleavage is on record?
The self-cleavage was 0.422.

Which self-cleavage does the source give for G22C A42G here?
Its self-cleavage is 0.265.

With A1G A34C as the variant, how does the self-cleavage read?
Its self-cleavage is 1.1.

With G5U C43A as the variant, how does the self-cleavage read?
The self-cleavage was 0.352.

With U9C G25C as the variant, how does the self-cleavage read?
The self-cleavage was 0.294.

Which self-cleavage does the source give for G17C U21A here?
Its self-cleavage is 0.306.

For C29A A34U, which self-cleavage is on record?
Its self-cleavage is 0.563.

With G8A A44U as the variant, how does the self-cleavage read?
Its self-cleavage is 0.648.

Which self-cleavage does the source give for U9G A26C here?
Its self-cleavage is 0.32.

With U19A G25C as the variant, how does the self-cleavage read?
The self-cleavage was 0.296.

For U24G U28A, which self-cleavage is on record?
The self-cleavage was 0.912.

With U13G U28C as the variant, how does the self-cleavage read?
The self-cleavage was 1.01.

For G35U C43A, which self-cleavage is on record?
The self-cleavage was 0.378.

For U7C G36U, which self-cleavage is on record?
Its self-cleavage is 0.422.

With U32A G45U as the variant, how does the self-cleavage read?
The self-cleavage was 0.707.

Which self-cleavage does the source give for C2G G22U here?
Its self-cleavage is 0.312.

Which self-cleavage does the source give for G5A here?
The self-cleavage was 1.32.

Which self-cleavage does the source give for U21C here?
Its self-cleavage is 0.877.

For G5C G8A, which self-cleavage is on record?
Its self-cleavage is 0.619.

For G17U G45U, which self-cleavage is on record?
The self-cleavage was 0.589.

For U9C U14C, which self-cleavage is on record?
Its self-cleavage is 0.518.

With U9C U14A as the variant, how does the self-cleavage read?
Its self-cleavage is 0.872.

With C16A A23U as the variant, how does the self-cleavage read?
The self-cleavage was 0.305.

With G17U G36C as the variant, how does the self-cleavage read?
Its self-cleavage is 0.336.

With G8A A34U as the variant, how does the self-cleavage read?
Its self-cleavage is 0.89.

Which self-cleavage does the source give for A1U G33U here?
Its self-cleavage is 0.972.

For A40U G45C, which self-cleavage is on record?
Its self-cleavage is 0.458.

With G18U A26U as the variant, how does the self-cleavage read?
Its self-cleavage is 0.368.

Which self-cleavage does the source give for U24G A42G here?
The self-cleavage was 0.346.

For G4U U9C, which self-cleavage is on record?
The self-cleavage was 0.413.

Which self-cleavage does the source give for C2U C15A here?
The self-cleavage was 0.397.

With C2U U21C as the variant, how does the self-cleavage read?
The self-cleavage was 0.273.

Which self-cleavage does the source give for A23G U24C here?
Its self-cleavage is 0.488.

Which self-cleavage does the source give for C15A C20G here?
Its self-cleavage is 0.289.

For G17A G39A, which self-cleavage is on record?
The self-cleavage was 0.326.

Which self-cleavage does the source give for G22A U32C here?
The self-cleavage was 0.29.

With G22A G25C as the variant, how does the self-cleavage read?
The self-cleavage was 0.329.

With C16G G17A as the variant, how does the self-cleavage read?
The self-cleavage was 0.532.

With G5U G17C as the variant, how does the self-cleavage read?
The self-cleavage was 0.309.

For A6G U32C, which self-cleavage is on record?
The self-cleavage was 0.931.

Which self-cleavage does the source give for U9G A44G here?
The self-cleavage was 1.07.

Which self-cleavage does the source give for A1G U7A here?
Its self-cleavage is 1.31.

Which self-cleavage does the source give for G5A C38A here?
Its self-cleavage is 0.65.

Which self-cleavage does the source give for U9C G17U here?
The self-cleavage was 0.897.

With C2A G22C as the variant, how does the self-cleavage read?
The self-cleavage was 0.353.

With G8C A40G as the variant, how does the self-cleavage read?
Its self-cleavage is 0.372.

With G18A U21A as the variant, how does the self-cleavage read?
Its self-cleavage is 0.401.

For U7C G33C, which self-cleavage is on record?
The self-cleavage was 0.963.

Which self-cleavage does the source give for C3A A41G here?
The self-cleavage was 0.262.

With G8U A44U as the variant, how does the self-cleavage read?
Its self-cleavage is 0.688.

With G17U G27A as the variant, how does the self-cleavage read?
Its self-cleavage is 0.643.

Which self-cleavage does the source give for G8A C15A here?
The self-cleavage was 0.937.

With G5U A40G as the variant, how does the self-cleavage read?
The self-cleavage was 0.35.

With C29G G31A as the variant, how does the self-cleavage read?
The self-cleavage was 1.01.

Which self-cleavage does the source give for G5U A26C here?
The self-cleavage was 0.357.

Which self-cleavage does the source give for U12C A42C here?
The self-cleavage was 0.32.

For A34G A37G, which self-cleavage is on record?
The self-cleavage was 0.649.

With G5C C11A as the variant, how does the self-cleavage read?
The self-cleavage was 0.761.

With G4A A44G as the variant, how does the self-cleavage read?
Its self-cleavage is 0.84.

For G25C U32A, which self-cleavage is on record?
The self-cleavage was 0.298.

For G8U U13C, which self-cleavage is on record?
Its self-cleavage is 1.34.

For G5C G22U, which self-cleavage is on record?
Its self-cleavage is 0.299.

For U9G G18C, which self-cleavage is on record?
The self-cleavage was 0.364.

For U12C, which self-cleavage is on record?
The self-cleavage was 1.05.

With A42C A44C as the variant, how does the self-cleavage read?
Its self-cleavage is 0.262.

For A26G A34U, which self-cleavage is on record?
Its self-cleavage is 0.353.

With G10A G36A as the variant, how does the self-cleavage read?
The self-cleavage was 0.742.

For U9G U13G, which self-cleavage is on record?
The self-cleavage was 0.802.

For A1G G27U, which self-cleavage is on record?
Its self-cleavage is 0.585.

Which self-cleavage does the source give for A1U U7C here?
The self-cleavage was 0.555.

For U21A A42U, which self-cleavage is on record?
Its self-cleavage is 0.402.

Which self-cleavage does the source give for U9A A37C here?
Its self-cleavage is 1.02.

With G25A C38A as the variant, how does the self-cleavage read?
Its self-cleavage is 0.379.

For C3U C15A, which self-cleavage is on record?
The self-cleavage was 0.486.

Which self-cleavage does the source give for C2G G10U here?
The self-cleavage was 0.379.
